Test results from the supplement of paper PMC10567573.

B1: INTS4 (parent)
chain: AKQIMEETYKMEFMYSGVENKQVV

Variants of: B1
Experiment: protein stability index of a GFP-peptide fusion (GPS, HEK-293T) (PSI 1-6); higher = more stable
Conditions: c terminus: a fixed tail appended
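Further: lentivirally expressed fusions sorted by FACS into six bins by GFP to DsRed ratio, PSI derived from sequencing read proportions per bin multiplied by bin number.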

| Variant | protein stability index |
| --- | --- |
| I4Q | 2.3 |
| I4A | 2.39 |
| I4K | 2.38 |
| I4M | 1.9 |
| I4C | 2.6 |
| I4V | 2.42 |
| I4P | 3.39 |
| I4G | 2.89 |
| I4D | 2.92 |
| I4H | 2.04 |
| I4N | 2.58 |
| I4R | 2.07 |
| I4L | 1.35 |
| I4S | 2.99 |
| I4E | 3.46 |
| I4F | 3 |
| I4T | 2.9 |
| I4Y | 2.48 |
| G17A | 1.51 |
| G17S | 1.59 |
| G17P | 1.29 |
| G17T | 1.06 |
| G17D | 1.84 |
| G17C | 2.87 |

| Variant | protein stability index |
| --- | --- |
| G17H | 2.5 |
| G17M | 1.65 |
| G17E | 1.55 |
| G17N | 1.48 |
| G17Y | 1.84 |
| G17L | 1.49 |
| G17Q | 2.37 |
| K2G | 3.06 |
| K2R | 1.4 |
| K2I | 2.81 |
| K2E | 3.43 |
| K2A | 1.89 |
| K2N | 3.62 |
| K2H | 3.23 |
| K2T | 2.54 |
| K2V | 2.04 |
| K2L | 2.62 |
| K2P | 2.62 |
| K2Y | 1.87 |
| K2S | 2.44 |
| K2F | 2.51 |
| K2W | 3.22 |
| K2D | 3.15 |
| K2C | 2.23 |

| Variant | protein stability index |
| --- | --- |
| K2Q | 2.27 |
| E19D | 1.78 |
| E19I | 1.54 |
| E19V | 1.28 |
| E19R | 1.95 |
| E19H | 2.06 |
| E19A | 2.52 |
| E19G | 1.9 |
| E19T | 1.85 |
| E19Y | 1.09 |
| E19Q | 1.84 |
| E19L | 1.2 |
| E19K | 1.07 |
| E19N | 1.91 |
| E19P | 1.56 |
| Y9R | 3.84 |
| Y9P | 3.78 |
| Y9L | 2.67 |
| Y9Q | 4.41 |
| Y9M | 3.43 |
| Y9D | 3.83 |
| Y9N | 4.24 |
| Y9H | 3.61 |
| Y9I | 2.02 |

| Variant | protein stability index |
| --- | --- |
| Y9A | 3.9 |
| Y9K | 3.57 |
| Y9V | 3.1 |
| Y9F | 2.26 |
| Y9G | 3.84 |
| Y9T | 3.87 |
| Y9S | 3.9 |
| Y9E | 4.34 |
| Y9W | 2.18 |
| Y9C | 2.31 |
| N20G | 2.55 |
| N20E | 2.44 |
| N20F | 2.86 |
| N20D | 1.33 |
| E12D | 2.18 |
| E12S | 1.61 |
| E12P | 3.16 |
| E12W | 2.48 |
| E12G | 2.66 |
| E12N | 1.81 |
| E12V | 1.06 |
| E12M | 2.43 |
| E12Q | 2.42 |
| E12Y | 2.44 |

| Variant | protein stability index |
| --- | --- |
| E12H | 2.32 |
| E12T | 2.33 |
| E12R | 2.34 |
| E12K | 1.59 |
| E12A | 2.97 |
| E12C | 1.6 |
| E12F | 1.95 |
| Q3C | 1.42 |
| Q3D | 2.26 |
| Q3G | 3.49 |
| Q3H | 1.69 |
| Q3I | 2.17 |
| Q3R | 1.7 |
| Q3F | 1.97 |
| Q3S | 2.35 |
| Q3Y | 1.84 |
| Q3E | 2.3 |
| Q3K | 1.96 |
| Q3T | 1.85 |
| Q3P | 2.85 |
| Q3N | 1.68 |
| Q3W | 2.53 |
| Q3L | 1.75 |
| Q3A | 2.15 |

| Variant | protein stability index |
| --- | --- |
| Q3M | 1.51 |
| V18Y | 1.9 |
| V18A | 2.04 |
| V18W | 1.95 |
| V18I | 1.69 |
| V18C | 1.92 |
| V18G | 2.12 |
| V18S | 2.07 |
| V18H | 1.87 |
| V18M | 1.75 |
| V18L | 2.12 |
| V18D | 1.88 |
| V18R | 1.54 |
| V18Q | 2.34 |
| V18K | 2.72 |
| V18N | 2.02 |
| V18P | 2.5 |
| V18T | 1.71 |
| V18E | 2.78 |
| Y15W | 1.67 |
| Y15I | 2 |
| Y15E | 2.9 |
| Y15H | 1.88 |
| Y15S | 2.15 |

| Variant | protein stability index |
| --- | --- |
| Y15M | 2.54 |
| Y15R | 2.67 |
| Y15C | 1.93 |
| Y15A | 2.57 |
| Y15P | 3.04 |
| Y15D | 2.37 |
| Y15G | 1.55 |
| Y15V | 1.69 |
| Y15L | 3.19 |
| Y15T | 2.08 |
| Y15Q | 2.61 |
| Y15N | 2.31 |
| Y15K | 2.62 |
| M14N | 1.99 |
| M14K | 1.71 |
| M14Q | 2.11 |
| M14F | 1.77 |
| M14G | 2.43 |
| M14L | 2.17 |
| M14T | 1.63 |
| M14I | 1.54 |
| M14S | 1.66 |
| M14D | 3.4 |
| M14H | 1.87 |

| Variant | protein stability index |
| --- | --- |
| M14Y | 1.25 |
| M14C | 1.98 |
| M14A | 2.25 |
| M14P | 3.88 |
| M14V | 1.71 |
| M14W | 2.02 |
| M14E | 2.54 |
| E7H | 1.7 |
| E7P | 2.93 |
| E7G | 2.1 |
| E7R | 2.55 |
| E7S | 1.67 |
| E7K | 2.55 |
| E7W | 3.34 |
| E7V | 2.97 |
| E7C | 1.71 |
| E7Y | 2.21 |
| E7T | 1.96 |
| E7A | 2.04 |
| E7Q | 1.86 |
| E7N | 1.9 |
| E7I | 2.35 |
| E7D | 1.68 |
| E7L | 1.38 |

| Variant | protein stability index |
| --- | --- |
| E7M | 1.5 |
| T8L | 2.67 |
| T8N | 2.42 |
| T8W | 2.71 |
| T8H | 2.54 |
| T8E | 2.69 |
| T8G | 1.41 |
| T8P | 3.46 |
| T8R | 1.84 |
| T8I | 1.28 |
| T8C | 1.52 |
| T8Q | 2.19 |
| T8A | 1.63 |
| T8Y | 1.92 |
| T8K | 2.85 |
| T8V | 1.89 |
| T8F | 1.64 |
| T8S | 2.39 |
| F13Y | 2.96 |
| F13G | 3.94 |
| F13R | 3.52 |
| F13L | 2.26 |
| F13K | 3.12 |
| F13D | 4.6 |

| Variant | protein stability index |
| --- | --- |
| F13S | 4.24 |
| F13H | 4.01 |
| F13N | 4.04 |
| F13A | 4.23 |
| F13C | 2.96 |
| F13V | 1.67 |
| F13Q | 3.12 |
| F13W | 1.79 |
| F13E | 4.3 |
| F13P | 3.66 |
| F13T | 3.57 |
| F13M | 1.86 |
| M11W | 2.22 |
| M11D | 4.33 |
| M11H | 3.56 |
| M11P | 3.85 |
| M11F | 2.26 |
| M11I | 3.35 |
| M11S | 2.37 |
| M11A | 1.42 |
| M11R | 3.42 |
| M11Q | 3.2 |
| M11N | 3.98 |
| M11K | 3.44 |

| Variant | protein stability index |
| --- | --- |
| M11C | 2.43 |
| M11G | 3.28 |
| M11Y | 2.68 |
| M11V | 1.9 |
| M11E | 3.9 |
| M11T | 2.9 |
| K10V | 2.64 |
| K10F | 1.13 |
| K10C | 1.6 |
| K10P | 3.79 |
| K10H | 1.25 |
| K10T | 1.43 |
| K10D | 3.55 |
| K10Y | 2.14 |
| K10N | 1.32 |
| K10Q | 1.67 |
| K10S | 1.81 |
| K10A | 1.91 |
| K10G | 2.48 |
| K10R | 3.13 |
| K10W | 1.96 |
| K10M | 1.99 |
| K10E | 3.15 |
| K10L | 1.96 |

| Variant | protein stability index |
| --- | --- |
| K10I | 1.92 |
| S16L | 2.08 |
| S16C | 2.1 |
| S16Q | 1.91 |
| S16D | 1.86 |
| S16H | 1.41 |
| S16I | 2.62 |
| S16Y | 1.76 |
| S16R | 1.36 |
| S16N | 1.98 |
| S16T | 1.56 |
| S16M | 2.24 |
| S16A | 2.15 |
| S16K | 1.7 |
| S16P | 2 |
| S16G | 2.14 |
| S16F | 3.1 |
| M5R | 2.87 |
| M5T | 2.98 |
| M5V | 2.2 |
| M5F | 1.79 |
| M5W | 2.11 |
| M5H | 2.76 |
| M5Q | 3.25 |

| Variant | protein stability index |
| --- | --- |
| M5I | 1.08 |
| M5Y | 2.71 |
| M5N | 3.75 |
| M5K | 3.05 |
| M5G | 3.53 |
| M5A | 3.14 |
| M5P | 2.54 |
| M5S | 3.08 |
| M5L | 4.9 |
| M5E | 3.67 |
| M5D | 3.99 |
| M5C | 2.87 |
| E6H | 2.21 |
| E6Y | 1.61 |
| E6D | 3.17 |
| E6G | 3.01 |
| E6N | 2.12 |
| E6T | 1.76 |
| E6K | 1.89 |
| E6W | 2.12 |
| E6C | 1.73 |
| E6Q | 1.77 |
| E6P | 2.16 |
| E6R | 2.48 |

| Variant | protein stability index |
| --- | --- |
| E6I | 2.61 |
| E6F | 2.01 |
| E6S | 2.47 |
| E6A | 2.25 |
| E6V | 2.54 |
| E6M | 3.07 |
| A1Y | 2.1 |
| A1G | 2.39 |
| A1V | 2.07 |
| A1N | 2.1 |
| A1Q | 2.52 |
| A1I | 1.42 |
| A1P | 3.02 |
| A1K | 2.68 |
| A1R | 2.69 |
| A1H | 2.72 |
| A1T | 2.8 |
| A1W | 2.44 |
| A1S | 2.82 |
| A1F | 1.04 |
| A1L | 2.44 |
| A1M | 1.34 |
